From PMC9173640, “PI Kinase-EhGEF2-EhRho5 axis contributes to LPA stimulated macropinocytosis in Entamoeba histolytica” (PLoS Pathogens, 2022)

Molecular target: T1, GST-RBD (Rho binding domain of mRhotekin) ( (printed as mRhotekin), UniProt Q8C6B2 17-98)
T1 construct: also called RBD-GST; source: E. coli BL21(DE3), purified (GST-sepharose beads); construct a gift from Dr. Richard Cerione
T1 sequence (looked up): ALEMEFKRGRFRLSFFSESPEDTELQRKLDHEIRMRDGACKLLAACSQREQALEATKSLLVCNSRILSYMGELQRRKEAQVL
Experiment: pull-down; GST-RBD/GST-PBD bound to sepharose beads incubated 2 hrs at 4°C with lysates (10 mM MgCl2, 5 mM EDTA) of serum starved HA-EhRho5 trophozoites, with or without 15 uM LPA for 15 mins, followed by 100 nM wortmannin or DMSO; blot with anti-HA
Settings: one partner purified

B1: HA-EhRho5 (natural protein)
chain: not shown
notes: EhRho5 (EhRacD), Rho family GTPase of Entamoeba histolytica, Acc no; EHI_012240; PCR primers run from the ATG to the stop codon; cloned in EhEx-HA with SmaI-XhoI; Expressed under the amoebic cysteine synthase promoter; also called EhRacD; source: E. histolytica HM1:IMSS trophozoites, stably transfected (EhEx-HA), in lysate
fold increase in binding after LPA treatment against untreated trophozoites: 7 fold
